From article PMC4726260, “Combined ligand-observe ^19F and protein-observe ^15N,^1H-HSQC NMR suggests phenylalanine as the key Δ-somatostatin residue recognized by human protein disulfide isomerase” (Scientific Reports, 2016) come the findings set out here.

pKd: −log10 of the molar value.

Some targets named below: F1 Δ-som; F1,2,3 Δ-som; F3 Δ-som; F2 Δ-som.
Common to all, as to experiment: NMR titration; ligand-observed 19F 1D; 0.15 mM fluorinated peptide constant, 15N b'x titrated (ratios 1:4 to 2.5:1); 310 K; 20 mM sodium phosphate pH 7.0, 50 mM NaCl, 5% D6-DMSO, 5% 2H2O, 0.05% sodium azide

In the case of “human protein disulphide isomerase (hPDI) fragment b'x (domain or fragment)”, the pKd (as a rule, the negative decadic logarithm of the Kd, by convention in mol/L) in the assay with F1 Δ-som was 3.96. Besides, in the assay with F1,2,3 Δ-som, the KD tracked on the F1 (Phe6) 19F resonance came to 108 µM, the KD tracked on the F2 (Phe7) 19F resonance was 33 µM, the KD tracked on the F3 (Phe11) 19F resonance was found to be 45 µM and the negative-log Kd (pKd) was 4.21. For the same substance, in the assay with F3 Δ-som, the pKd was 4.01. Moreover, in the assay with F2 Δ-som, the pKd was 4.57.
